In patent US20080138349A1:

Assays:
[1] = target: FcγRIIIA 158F (CD16A F158), soluble monomer (human) (UniProt P08637); experiment: binding to human FcRs; method not given
[2] = target: FcγRIIA 131H (CD32A H131), soluble dimeric Fc fusion (human) (UniProt P12318); experiment: binding to human FcRs; method not given
[3] = target: FcγRIIIA 158V (CD16A V158), soluble monomer (human) (UniProt P08637); experiment: binding to human FcRs; method not given
[4] = target: FcγRIIB (CD32B), soluble dimeric Fc fusion (human) (UniProt P31994); experiment: binding to human FcRs; method not given
[5] = target: FcγRIIIA 158F (CD16A F158), soluble monomer (human) (UniProt P08637); experiment: Biacore SPR
[6] = target: FcγRIIIA 158V (CD16A V158), soluble monomer (human) (UniProt P08637); experiment: Biacore SPR
[7] = target: FcγRIIB (CD32B), soluble dimeric Fc fusion (human) (UniProt P31994); experiment: Biacore SPR
[8] = target: FcγRIIIA 158F (CD16A F158), soluble monomer (human) (UniProt P08637); experiment: Biacore SPR; value on CD16A over value on CD32B
[9] = target: FcγRIIIA 158V (CD16A V158), soluble monomer (human) (UniProt P08637); experiment: Biacore SPR; value on CD16A over value on CD32B
[10] = target: FcγRIIIA 158V (CD16A V158), soluble monomer (human) (UniProt P08637); experiment: value on CD16A 158V over value on CD32B
[11] = target: FcγRIIIA 158F (CD16A F158), soluble monomer (human) (UniProt P08637); experiment: method not given
[12] = target: FcγRIIA 131H (CD32A H131), soluble dimeric Fc fusion (human) (UniProt P12318); experiment: method not given
[13] = target: FcγRIIIA 158V (CD16A V158), soluble monomer (human) (UniProt P08637); experiment: method not given
[14] = target: FcγRIIA 131R (CD32A R131), soluble dimeric Fc fusion (human) (UniProt P12318); experiment: method not given
[15] = target: FcγRIIB (CD32B), soluble dimeric Fc fusion (human) (UniProt P31994); experiment: method not given
[16] = target: FcγRIIA 131H (CD32A H131), soluble dimeric Fc fusion (human) (UniProt P12318); experiment: value on CD32A 131H over value on CD32B
[17] = target: FcγRIIIA 158F (CD16A F158), soluble monomer (human) (UniProt P08637); experiment: value on CD16A 158F over value on CD32B

Sequence of FcγRIIIA 158V (CD16A V158), soluble monomer (human) (P08637 17-208 F176V): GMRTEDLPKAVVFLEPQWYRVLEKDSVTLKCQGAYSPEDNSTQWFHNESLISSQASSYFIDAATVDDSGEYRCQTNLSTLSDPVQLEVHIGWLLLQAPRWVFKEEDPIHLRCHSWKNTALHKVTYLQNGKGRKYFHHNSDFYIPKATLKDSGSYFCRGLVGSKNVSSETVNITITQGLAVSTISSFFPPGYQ
Sequence of FcγRIIIA 158F (CD16A F158), soluble monomer (human) (P08637 17-208): as the sequence (P08637 17-208 F176V) above, with V160F counted along it
Sequence of FcγRIIB (CD32B), soluble dimeric Fc fusion (human) (P31994 43-217): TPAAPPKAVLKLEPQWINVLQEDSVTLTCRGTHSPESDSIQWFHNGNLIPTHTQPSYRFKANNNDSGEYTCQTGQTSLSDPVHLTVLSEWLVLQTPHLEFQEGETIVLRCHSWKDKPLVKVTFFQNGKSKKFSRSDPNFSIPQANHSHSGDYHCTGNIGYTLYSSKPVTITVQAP
Sequence of FcγRIIA 131H (CD32A H131), soluble dimeric Fc fusion (human) (P12318 34-217): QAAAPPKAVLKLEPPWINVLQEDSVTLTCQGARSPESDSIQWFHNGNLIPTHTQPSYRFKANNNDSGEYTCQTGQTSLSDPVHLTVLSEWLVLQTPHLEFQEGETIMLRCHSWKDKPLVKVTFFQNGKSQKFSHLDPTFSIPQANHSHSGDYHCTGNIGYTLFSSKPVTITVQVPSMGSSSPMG
Sequence of FcγRIIA 131R (CD32A R131), soluble dimeric Fc fusion (human) (P12318 34-217 H167R): as the sequence (P12318 34-217) above, with H134R counted along it

fold change relative to wild-type affinity [2] [fold] | fold change relative to wild-type affinity [4] [fold] | Koff WT/Koff mutant [5] | Koff WT/Koff mutant [6] | Koff WT/Koff mutant [7] | Ratio of Affinities CD16A F158/CD32B [8] | Ratio of Affinities CD16A V158/CD32B [9] | also measured | Substance
-3.3 | -2.5 |  |  |  |  |  | fold change relative to wild-type affinity [1]: 0.1 fold; fold change relative to wild-type affinity [3]: 0.6 fold | Control immunoglobulin with variant Fc region E333A K334A S298A (AAA) (antibody)
0 | 0.74 |  |  |  |  |  | fold change relative to wild-type affinity [1]: 8.1 fold; fold change relative to wild-type affinity [3]: 13.9 fold | Control immunoglobulin with variant Fc region S239D I332E A330L (XmAb) (antibody)
0.4 | -1.6 |  |  |  |  |  | fold change relative to wild-type affinity [1]: 2.4 fold; fold change relative to wild-type affinity [3]: 5.3 fold | Immunoglobulin with variant Fc region F243L R292P P396L (antibody)
0 | -0.7 | 2.3 | 6.69 | 0.32 | 7.19 | 20.9 | fold change relative to wild-type affinity [1]: 3.6 fold; fold change relative to wild-type affinity [3]: 6.4 fold | Immunoglobulin with variant Fc region F243L R292P Y300L (antibody)
 |  |  |  |  |  |  | Ratio of Affinities 16A-158V:32B [10]: 8.5; binding relative to wt (wt = 1) [11]: 1.6; binding relative to wt (wt = 1) [12]: 0.3; binding relative to wt (wt = 1) [13]: 1.7; binding relative to wt (wt = 1) [14]: 0.2; binding relative to wt (wt = 1) [15]: 0.2; Ratio of Affinities 32A-131H:32B [16]: 1.5; Ratio of Affinities 16A-158F:32B [17]: 8 | Immunoglobulin with variant Fc region L234F, F243L, R292P, Y300L (antibody)
 |  |  |  |  |  |  | Ratio of Affinities 16A-158V:32B [10]: 13; binding relative to wt (wt = 1) [11]: 3.3; binding relative to wt (wt = 1) [12]: 0.5; binding relative to wt (wt = 1) [13]: 2.6; binding relative to wt (wt = 1) [14]: 0.1; binding relative to wt (wt = 1) [15]: 0.2; Ratio of Affinities 32A-131H:32B [16]: 2.5; Ratio of Affinities 16A-158F:32B [17]: 16.5 | Immunoglobulin with variant Fc region L235I, F243L, R292P, Y300L (antibody)
 |  |  |  |  |  |  | binding relative to wt (wt = 1) [12]: 0.2; binding relative to wt (wt = 1) [13]: 1.8 | Immunoglobulin with variant Fc region L235Q, F243L, R292P, Y300L (antibody)
 |  |  |  |  |  |  | Ratio of Affinities 16A-158V:32B [10]: 15; binding relative to wt (wt = 1) [11]: 4.8; binding relative to wt (wt = 1) [12]: 1.3; binding relative to wt (wt = 1) [13]: 6.1; binding relative to wt (wt = 1) [14]: 0.4; binding relative to wt (wt = 1) [15]: 0.4; Ratio of Affinities 32A-131H:32B [16]: 3.3; Ratio of Affinities 16A-158F:32B [17]: 12 | Immunoglobulin with variant Fc region L235V, F243L, R292P, Y300L, P396L (antibody)
 |  | 2.46 | 1.89 | 0.58 | 4.24 | 3.26 |  | Immunoglobulin with variant Fc region P247L N421K D270E (antibody)
 |  | 3.45 | 2.3 | 0.32 | 10.8 | 7.19 |  | Immunoglobulin with variant Fc region P247L N421K D270E F243L (antibody)
 |  | 1.71 | 1.89 | 0.17 | 10.1 | 11.1 |  | Immunoglobulin with variant Fc region P247L N421K F243L (antibody)
0.6 | 1.6 | 1.73 | 1.27 | 2.58 | 0.67 | 0.49 | fold change relative to wild-type affinity [1]: 0.7 fold; fold change relative to wild-type affinity [3]: 0.3 fold | Immunoglobulin with variant Fc region P396L (antibody)
 |  | 1.65 | 1.38 | 0.89 | 1.85 | 1.55 |  | Immunoglobulin with variant Fc region P396L D270E (antibody)
 |  | 1.6 | 1.49 | 2.22 | 0.72 | 0.67 |  | Immunoglobulin with variant Fc region P396L F243L (antibody)
 |  | 1.19 | 1.19 | 1.33 | 0.89 | 0.89 |  | Immunoglobulin with variant Fc region Q419H P396L (antibody)
 |  | 1.15 | 1.46 | 0.26 | 4.42 | 5.62 |  | Immunoglobulin with variant Fc region Q419H P396L D270E F243L (antibody)
 |  | 1.39 | 1.09 | 2.22 | 0.63 | 0.49 |  | Immunoglobulin with variant Fc region R255L P396L (antibody)
 |  | 1.65 | 1.34 | 0.87 | 1.9 | 1.54 |  | Immunoglobulin with variant Fc region R255L P396L D270E (antibody)
 |  | 1.64 | 1.75 | 0.38 | 4.32 | 4.61 |  | Immunoglobulin with variant Fc region R255L P396L D270E F243L (antibody)
-0.5 | -2.7 |  |  |  |  |  | fold change relative to wild-type affinity [1]: 0.6 fold | Immunoglobulin with variant Fc region R292P (antibody)
 |  | 5.62 | 10.1 | 1.07 | 5.25 | 9.4 |  | Immunoglobulin with variant Fc region R292P F243L P396L Y300L (antibody)
 |  | 1.37 | 1.14 | 0.37 | 3.7 | 3.1 |  | Immunoglobulin with variant Fc region R292P V284M K370N (antibody)
-0.3 | -1.6 |  |  |  |  |  | fold change relative to wild-type affinity [3]: -3 fold | Immunoglobulin with variant Fc region R292P V305I F243L P396L (antibody)
 |  | 1.9 | 1.85 | 0.92 | 2.07 | 2.01 |  | Immunoglobulin with variant Fc region R292P V305I P396L (antibody)
1.9 | 0.2 |  | 1.01 | 1.18 | 0.99 |  | fold change relative to wild-type affinity [1]: 0.2 fold; fold change relative to wild-type affinity [3]: 0 fold | Immunoglobulin with variant Fc region Y300L (antibody)
